Assay results as given in paper PMC3017672 (Journal of molecular biology, 2010).

Molecular target: the molecule itself
Test: cryo-EM structure

B1: bacteriophage 80α capsid protein gp47 (natural protein, Staphylococcus aureus bacteriophage 80α, UniProt A4ZFB3 15-324, looked up)
chain: ASNNVKPQVFNPDNVMMHEKKDGTLMNEFTTPILQEVMENSKIMQLGKYEPMEGTEKKFTFWADKPGAYWVGEGQKIETSKATWVNATMRAFKLGVILPVTKEFLNYTYSQFFEEMKPMIAEAFYKKFDEAGILNQGNNPFGKSIAQSIEKTNKVIKGDFTQDNIIDLEALLEDDELEANAFISKTQNRSLLRKIVDPETKERIYDRNSDSLDGLPVVNLKSSNLKRGELITGDFDKLIYGIPQLIEYKIDETAQLSTVKNEDGTPVNLFEQDMVALRATMHVALHIADDKAFAKLVPADKRTDSVPGEV
stoichiometry N: 420 copies
